Changes are numbered by the printed parent chain.
B1: GST-tagged SR6v15 (VHH)
VHH: EVQLVESGGGLVQAGDSLRLSCAASGDSYILWRMGWFRQAPGKEREFVAAISLDGQFTNYADSVRGRFSISADSAKYTVYLQMNSLKPEDTAVYYCAALPFLDYWGQGTQVTVSS
notes: not shown: GST, C-terminal, kept
B2: SR12_f3 (VHH)
VHH: QVQLVVSGGGLVQAGDSLRLSCAASGAIVHVFAMGWFRQAPGKEREFVASINLDNDATNYADSVKGRFTISRDDARNTVYLQMNSLKPEDTAVYYCNATIFMDSDLGDYWGRGTQVTVSS
B3: SR12_t6 (VHH)
VHH: B2 VHH with A57V, M102T, D105G
B4: SR4_t13 (VHH)
VHH: KVQLVVTGRVLVQAGDSLRLSCVATGFQLSCYCVGWFRQAPGKELEFVASITQHAFRTYYADSVKGRFTISRDDAQNTVYLQMNSLEPEDTAVYYCAAAETPNILVHESYWGQGTQVTVSS
B5: SR2_c3 (VHH)
VHH: EVQLVESGGGLVQAGDSLRLSCAASGAFSSNVFMGWFRQAPGKEREFVASITPHHAVTDYADSVRGRFSISADSAKNTVYLQMNSLKPEDTAVYYCAAAIYRNATVLDYWGQGTQVTVSS
B6: SR2_t5 (VHH)
VHH: B5 VHH with E1Q, S74T
B7: SR2_c4 (VHH)
VHH: B5 VHH with R102C
B8: SR1_t2 (VHH)
VHH: EVRLVESGGGLVLAGDSLRLSCAASGKTGRSVIMGWFRQAPDKEREFVATITRGDDTTNYADSVKGRFTISRDDARNTVYLQMNSLKPEDTAVYYCAAVYFVNDCIVDYWGQGTQVTVSS
B9: SR6_f3 (VHH)
VHH: B1 VHH with E1Q, E6V, S28C, Y29H, I30V, Q56L, K76E, Y77N, L99M, L102F
B10: SR6_t5 (VHH)
VHH: B1 VHH with E1Q, E6V, S28C, Y29H, I30V, Y77N
B11: SR6_t9 (VHH)
VHH: B1 VHH with E1Q, E6V, A23T, S28C, Y29H, I30V, R45L, T58A, K76E, Y77N
B12: SR6_t6 (VHH)
VHH: B1 VHH with E1Q, E6V, S28C, Y29H, I30V, K76E, Y77N
B13: SR4_c1 (VHH)
VHH: EVQLVESGGGLVQAGDSLRLSCAASGFQLSCYCMGWFRQAPGKEREFVASITQHAFRTYYADSVKGRFTISRDDARNTVYLQMNSLKPEDTAVYYCAAAETPNILVHENYWGQGTQVTVSS
B14: SR4_t4 (VHH)
VHH: B13 VHH with E6V, G9R, M34V
B15: SR4_f3 (VHH)
VHH: B13 VHH with E6V, G9R, M34V, H107Y
B16: SR4_t6 (VHH)
VHH: B13 VHH with E6V, G9R, G10V, M34V, N109S
B17: SR4_t9 (VHH)
VHH: B4 VHH with T7S, V23A, Q76R, E87K

Each binder was assayed against recombinant RBD (ThermoFisher, RP-87678) (SARS-CoV-2, Wuhan-Hu-1 assumed, UniProt P0DTC2) (assay: BLI). Details: one partner purified.

For B1, which Kd is on record?
The Kd was 2.18 nM.

Each binder was assayed against SARS-CoV-2 spike RBD with C-terminal 3xFlag tag and N-terminal signal peptide of the spike (RBD-3xFlag) (SARS-CoV-2, Wuhan-Hu-1 type (wild type), UniProt P0DTC2) (assay: not given). Details: not given.

Does B2 bind?
Result: binds

Does B3 bind?
Result: binds

Does B4 bind?
Result: binds

Does B5 bind?
Result: binds

Does B6 bind?
Result: binds

Does B7 bind?
Result: binds

Does B8 bind?
Result: binds

Does B9 bind?
Result: binds

Does B10 bind?
Result: binds

Does B11 bind?
Result: binds

Does B12 bind?
Result: binds

Does B13 bind?
Result: binds

Does B14 bind?
Result: binds

Does B15 bind?
Result: binds

Does B16 bind?
Result: binds

Does B17 bind?
Result: binds

Source: PMC8448731 (Nature Communications, 2021)
